Among the targets are HLA-A*33:01; HLA-A*31:01; HLA-A*03:01; HLA-A*68:01; HLA-A*11:01.
What all share (test): IEDB peptide-MHC binding, purified MHC/competitive/radioactivity; filed as Kd, often an IC50 or EC50 that approximates it; ≥ and ≤ were set here for values at or beyond the usual limits of such assays
[1] abbreviates: source organism: Dengue virus 4 Philippines/H241/1956.
Where [2] appears, read: source organism: Dengue virus 2 Jamaica/1409/1983.
[3] abbreviates: source organism: Vaccinia virus WR.
The mark [4] stands for this setting: source organism: Lassa virus Josiah.
Where [5] appears, read: source organism: Mammarenavirus guanaritoense.
[6] abbreviates: source organism: SARS coronavirus Tor2.
[7] abbreviates: source organism: Dengue virus 1 Brazil/97-11/1997.
[8] abbreviates: source organism: Dengue virus 3 Martinique/1243/1999.
Where [9] appears, read: source organism: Dengue virus 1 Nauru/West Pac/1974.

The term Kd denotes the equilibrium constant for the complex coming apart. With DYEVDEDIFR, the Kd with HLA-A*33:01 (setting [1]) stood at 471 nM.
As for EDKAWLVHR, in the experiment with HLA-A*33:01 (setting [2]), the Kd turned out to be 15.6 nM.
Regarding EINEWLSSK, the Kd with HLA-A*31:01 (setting [3]) came to 7100 nM; with HLA-A*03:01 (setting [3]), 201 nM; in the experiment with HLA-A*33:01 (setting [3]), 18.6 nM; with HLA-A*68:01 (setting [3]), 3.76 nM; in the experiment with HLA-A*11:01 (setting [3]) it was 170 nM.
The matching figures for ELALTDVEKR: 11800 nM, not below 68800 nM, 16800 nM, 149 nM and not below 69800 nM.
For ELESLSKRER, the Kd with HLA-A*31:01 (setting [3]) was 3450 nM; in the experiment with HLA-A*03:01 (setting [3]) it was not below 70100 nM; with HLA-A*33:01 (setting [3]) it was 12600 nM; with HLA-A*68:01 (setting [3]) it was 388 nM; in the experiment with HLA-A*11:01 (setting [3]), 4230 nM.
In the same order, the values of ELQSVLVTTY are 16100 nM, 2000 nM, not below 61800 nM, 1480 nM and 603 nM.
For EMGANFRAGR, the figures for the Kd with HLA-A*31:01 (setting [1]) and in the experiment with HLA-A*33:01 (setting [1]) were 67.3 nM and 7.51 nM, respectively.
For the sequence ENAVWDQYK, the dissociation constant (Kd) is not below 22500 nM with HLA-A*31:01 (setting [4]); 12600 nM with HLA-A*03:01 (setting [4]); 958 nM with HLA-A*33:01 (setting [4]); 42.9 nM with HLA-A*68:01 (setting [4]); 6640 nM in the experiment with HLA-A*11:01 (setting [4]).
For the sequence ETTILDVDLR, the Kd with HLA-A*68:01 (setting [1]) came out at 45 nM.
For the sequence EVGSIRCVK, the Kd in the experiment with HLA-A*31:01 (setting [3]) is 5910 nM; in the experiment with HLA-A*03:01 (setting [3]) it was 543 nM; with HLA-A*33:01 (setting [3]), 83 nM; with HLA-A*68:01 (setting [3]), 1.19 nM; with HLA-A*11:01 (setting [3]), 332 nM.
As for FESLFKCLSH, the Kd with HLA-A*31:01 (setting [5]) came out at 608 nM; in the experiment with HLA-A*03:01 (setting [5]) it was 5530 nM; with HLA-A*33:01 (setting [5]), 2750 nM.
Turning to FFVFIHMVR, the Kd is 1.08 nM with HLA-A*31:01 (setting [3]); 0.874 nM with HLA-A*03:01 (setting [3]); 0.46 nM with HLA-A*33:01 (setting [3]); 0.0241 nM with HLA-A*68:01 (setting [3]); 3780 nM in the experiment with HLA-A*11:01 (setting [3]).
The matching figures for FIKPVSDLY: 634 nM, 647 nM, 501 nM, 252 nM and 832 nM.
In the same order, the values of FITKEIKNR are 3590 nM, not below 78000 nM, 6040 nM, 276 nM and not below 77900 nM.
In the same order, the values of FMRDWNSKY are not below 77900 nM, 8370 nM, not below 66300 nM, not below 77700 nM and not below 77900 nM.
Regarding FSAGAGVLDK, the Kd in the experiment with HLA-A*31:01 (setting [3]) is 575 nM; in the experiment with HLA-A*03:01 (setting [3]), 452 nM; with HLA-A*33:01 (setting [3]), 350 nM; with HLA-A*68:01 (setting [3]) it was 15 nM; with HLA-A*11:01 (setting [3]), 225 nM.
In the same order, the values of GFCIPSRSK are 179 nM, 973 nM, not below 77700 nM, not below 38600 nM and 1900 nM.
Turning to GIFLFLMSGK, the Kd with HLA-A*03:01 (setting [2]) is 85.5 nM; with HLA-A*11:01 (setting [2]), 549 nM.
GLALYYPSAR: the equilibrium dissociation constant (Kd) was determined as 993 nM in the experiment with HLA-A*31:01 (setting [6]); 226 nM with HLA-A*03:01 (setting [6]); 2840 nM with HLA-A*33:01 (setting [6]); 89.8 nM with HLA-A*68:01 (setting [6]); 1120 nM with HLA-A*11:01 (setting [6]).
In the case of GSSADLSLEK, the Kd with HLA-A*11:01 (setting [7]) is 76 nM.
Turning to GVSYEVFDDY, the Kd was not below 70000 nM with HLA-A*31:01 (setting [3]); not below 70100 nM with HLA-A*03:01 (setting [3]); not below 70000 nM with HLA-A*33:01 (setting [3]); not below 70200 nM in the experiment with HLA-A*68:01 (setting [3]); 504 nM in the experiment with HLA-A*11:01 (setting [3]).
As for GYVLGIFLR, the figures for the Kd with HLA-A*31:01 (setting [1]) and with HLA-A*33:01 (setting [1]) were 15.7 nM and 39.8 nM, respectively.
Take HLAIMAVFK: the figures for the Kd with HLA-A*03:01 (setting [1]) and with HLA-A*68:01 (setting [1]) were 5.77 nM and 70.6 nM, respectively.
IAVSMANIFR: the Kd with HLA-A*31:01 (setting [2]) is 37.4 nM; with HLA-A*33:01 (setting [2]), 279 nM; with HLA-A*68:01 (setting [2]), 17.3 nM.
Regarding IQKITVFNK, the Kd with HLA-A*68:01 (setting [3]) is not below 30300 nM.
Regarding ITANPVVTKK, the figures for the Kd with HLA-A*68:01 (setting [8]) and in the experiment with HLA-A*11:01 (setting [8]) were 23.9 nM and 84.6 nM, respectively.
In the case of ITENKIWGR, the equilibrium dissociation constant (Kd) with HLA-A*33:01 (setting [9]) was determined as 141 nM.
On to IVSSVNTTSK, for which the results for the Kd in the experiment with HLA-A*03:01 (setting [1]) and with HLA-A*11:01 (setting [1]) were 37.2 nM and 234 nM, respectively.
For the sequence KKSKAINVLR, in the experiment with HLA-A*31:01 (setting [2]), the Kd was 163 nM.
On to KLVTQWCCR, for which the Kd with HLA-A*31:01 (setting [1]) turned out to be 11.9 nM.
As to KWLWGFLSR, the Kd with HLA-A*31:01 (setting [7]) is not below 77900 nM.
As to MLINRFTMK, the Kd came to 3.57 nM with HLA-A*03:01 (setting [2]) and 116 nM in the experiment with HLA-A*11:01 (setting [2]).
For MVLLQMENK, in the experiment with HLA-A*11:01 (source organism: Dengue virus 2 Thailand/NGS-C/1944), the dissociation constant (Kd) stood at 227 nM.
For the sequence NIVMLHTTER, the Kd with HLA-A*33:01 (setting [1]) came to 83.8 nM; with HLA-A*68:01 (setting [1]), 16.9 nM.
In the case of QAIDGEFRLR, the Kd in the experiment with HLA-A*68:01 (setting [1]) worked out at 15.5 nM.
With QLKLNWFKK, in the experiment with HLA-A*03:01 (setting [2]), the Kd was 134 nM.
For the sequence STVSQLAKR, the dissociation constant Kd in the experiment with HLA-A*31:01 (setting [9]) is not below 77900 nM; in the experiment with HLA-A*68:01 (setting [9]), 9.66 nM.
Take VMAFHLSTR: in the experiment with HLA-A*31:01 (source organism: Dengue virus 4 Thailand/0348/1991), the Kd came to 9.39 nM.
Regarding VTRLENLMWK, the dissociation constant (Kd) in the experiment with HLA-A*11:01 (setting [2]) is 128 nM.
With WYMWQVKTQR, the dissociation constant (Kd) with HLA-A*33:01 (setting [1]) worked out at 2.54 nM.

Source of the values: the Immune Epitope Database (IEDB).
